Source: publication PMC6783653, “TIP30 counteracts cardiac hypertrophy and failure by inhibiting translational elongation” (EMBO Molecular Medicine, 2019)

Biological target: T1, GST-tagged eEF1A1 (rat, UniProt P62630 1-462)
T1 construct: eEF1A1, rat, open reading frame BC128723.1; Cloned into pGEX-4T1, which should place GST at the N-terminus (surmise); also called GST-eEF1A1
T1 sequence (looked up): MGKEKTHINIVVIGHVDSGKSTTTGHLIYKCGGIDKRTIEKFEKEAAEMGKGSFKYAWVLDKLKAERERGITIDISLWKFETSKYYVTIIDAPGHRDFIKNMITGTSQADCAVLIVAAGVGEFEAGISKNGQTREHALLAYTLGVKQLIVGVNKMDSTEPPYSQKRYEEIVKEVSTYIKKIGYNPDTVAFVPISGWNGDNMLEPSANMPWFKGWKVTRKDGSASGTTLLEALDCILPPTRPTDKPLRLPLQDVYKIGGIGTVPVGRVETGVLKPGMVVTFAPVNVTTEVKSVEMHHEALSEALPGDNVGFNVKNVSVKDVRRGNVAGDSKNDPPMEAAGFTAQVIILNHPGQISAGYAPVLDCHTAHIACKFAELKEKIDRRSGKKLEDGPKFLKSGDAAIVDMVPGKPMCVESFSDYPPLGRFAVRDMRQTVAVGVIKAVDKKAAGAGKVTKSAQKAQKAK
Assay: pull-down; GST or GST-eEF1A1 on glutathione agarose beads, purified eEF1B2-His; purified TIP30-His added in increasing amounts
Settings: both partners purified

binding result: binds
B1: purified eEF1B2-His (natural protein, rat, UniProt A6IPG1 1-225, looked up)
chain: MGFGDLKTPAGLQVLNDYLADKSYIEGYVPSQADVAVFEAISGPPPADLCHALRWYNHIKSYEKEKASLPGVKKSLGKYGPVSVADTTGSGAADAKDDDDIDLFGSDDEEESEDAKRLREERLAQYESKKAKKPAVVAKSSILLDVKPWDDETDMTKLEECVRSIQADGLVWGSSKLVPVGYGIKKLQIQCVVEDDKVGTDMLEEQITAFEDYVQSMDVAAFNKI
notes: eEF1B2, rat, open reading frame NM_001108799.2
